Source: publication doi:10.1101/296517 (bioRxiv, 2018)
Several values for one entry are separate records, joined by “and”; a condition that tells them apart may be missing. Equal values may be shown once.

B1: GRASP65 (natural protein)
chain: not shown
B2: Rab6a GTPase (natural protein, human (endogenous in LNCaP), UniProt P20340 1-208, looked up)
chain: MSTGGDFGNPLRKFKLVFLGEQSVGKTSLITRFMYDSFDNTYQATIGIDFLSKTMYLEDRTVRLQLWDTAGQERFRSLIPSYIRDSTVAVVVYDITNVNSFQQTTKWIDDVRTERGSDVIIMLVGNKTDLADKRQVSIEEGERKAKELNVMFIETSAKAGYNVKQLFRRVAAALPGMESTQDRSREDMIDIKLEKPQEQPVSEGGCSC

Key:
Western blot of lysates = molecular target: the molecule itself; test: Western blot of lysates
Western blot = molecular target: the molecule itself; test: Western blot

Protein	stoichiometry N (Western blot of lysates)	stoichiometry N (Western blot)
B1	2 and 4	
B2		2
